From paper doi:10.1101/2025.09.04.674340

B1: Ab1999 Fab (Fab, V domains shown)
VH: QVQLQESGPGLVKPSETLSLTCAVSGGSISDDYSWSWIRQPPGKGLEWIGYIYGSGGGTNYNPSLKNRVTISIDTSKNQFSLKLSSVTAADTAVYYCARIFAFITVFGVVTPEDNWFDVWGPGVLVTVSS
VL: DIQMTQSPSSLSASVGDRVTITCRASQSINNYLHWYQQRAGEAPKLLIYAASALQTGVPSRFSGSGSGTDFTLTISSLQPEDVATYYCQHSYGTPYSFGQGTKVEIK
B2: Ab1983 Fab (Fab, V domains shown)
VH: QLQLQESGPGLVKPSETLSLTCAVSGGSISSDYYYWSWIRQPPGKGLEWIGGIYSISESTNYNPSLKSRVTISKDTSKNQFSLKLSSVTAADTAVYFCARKDPYSSGWTPDYWGQGVLVTVSS
VL: QSVLTQPSSASASLGASVTLTCTLSSGYSNYAVDWHQQRPGKGPQFVMRVGTGGIVGSKGDGIPDRFSGSGSGLNRYLTIKNIQEEDESDYHCGADHGTGSSFVWVFGGGTRLTVL

Tests used:
[1] = biological target: RC1 Env SOSIP trimer (HIV-1 strain BG505); test: cryo-EM structure
[2] = biological target: WIN332 Env SOSIP trimer (HIV-1 strain BG505); test: cryo-EM structure

| Binder | stoichiometry N (Fab per Env trimer) [1] | stoichiometry N (Fab per Env trimer) [2] |
| --- | --- | --- |
| B1 | 1 |  |
| B2 |  | 2 |
